# No end group written: not given here. *: point of attachment. Biotin = O=C1N[C@H]2[C@H](CS[C@H]2CCCCC(=O)*)N1
# T1: PR-3 (Homo sapiens, UniProt P24158)
# T1 construct: purchased Sigma
# T1 sequence (P24158 28-248 limits assumed): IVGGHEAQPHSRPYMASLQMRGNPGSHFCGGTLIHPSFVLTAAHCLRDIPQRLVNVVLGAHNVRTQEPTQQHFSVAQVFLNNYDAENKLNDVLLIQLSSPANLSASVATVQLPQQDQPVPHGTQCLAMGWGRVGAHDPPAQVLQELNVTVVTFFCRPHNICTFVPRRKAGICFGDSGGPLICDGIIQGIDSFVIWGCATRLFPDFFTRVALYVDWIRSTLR
# T2: ANXAS (Homo sapiens, UniProt P08758)
# T2 construct: purchased AmProx
# T2 sequence (P08758 1-320): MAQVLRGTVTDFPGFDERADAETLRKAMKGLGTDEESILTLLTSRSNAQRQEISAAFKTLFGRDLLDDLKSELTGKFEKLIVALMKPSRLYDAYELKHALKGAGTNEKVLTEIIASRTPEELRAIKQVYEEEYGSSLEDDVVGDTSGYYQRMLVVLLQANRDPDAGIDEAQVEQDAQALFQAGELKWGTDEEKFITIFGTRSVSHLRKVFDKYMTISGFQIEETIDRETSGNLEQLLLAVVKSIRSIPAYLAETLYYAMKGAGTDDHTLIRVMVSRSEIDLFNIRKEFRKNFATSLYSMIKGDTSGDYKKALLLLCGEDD
# T3: prohibitin (Homo sapiens, UniProt P35232)
# T3 construct: gift from Dr. Srikumar Chellappan (H. Lee Moffitt Cancer Center & Research Institute)
# T3 sequence (P35232 1-272): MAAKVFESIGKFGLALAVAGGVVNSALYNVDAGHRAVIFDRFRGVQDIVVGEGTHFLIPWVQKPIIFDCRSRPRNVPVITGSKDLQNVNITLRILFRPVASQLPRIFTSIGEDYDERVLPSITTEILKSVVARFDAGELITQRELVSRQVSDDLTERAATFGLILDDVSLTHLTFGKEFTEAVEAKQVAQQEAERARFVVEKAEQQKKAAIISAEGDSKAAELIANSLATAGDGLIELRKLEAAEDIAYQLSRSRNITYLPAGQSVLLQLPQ
# T4: His6-ANXA5 (UniProt P08758 1-320, limits assumed)
# T4 construct: also called ANXAS (so in the source); control His6-ANXAS; not shown: His6 tag
# T4 sequence (looked up): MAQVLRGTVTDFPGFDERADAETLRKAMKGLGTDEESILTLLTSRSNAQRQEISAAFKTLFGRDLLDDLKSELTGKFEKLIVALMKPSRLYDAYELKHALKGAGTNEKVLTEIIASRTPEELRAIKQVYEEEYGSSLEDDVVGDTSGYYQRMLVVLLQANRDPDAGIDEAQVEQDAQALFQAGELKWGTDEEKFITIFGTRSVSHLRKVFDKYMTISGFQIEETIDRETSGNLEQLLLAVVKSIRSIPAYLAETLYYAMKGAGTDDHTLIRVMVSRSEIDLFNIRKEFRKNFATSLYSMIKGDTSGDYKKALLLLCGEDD
# B1: human leukocyte proteinase-3 (PR-3) (enzyme)
# chain: IVGGHEAQPHSRPYMASLQMRGNPGSHFCGGTLIHPSFVLTAPHCLRDIPQRLVNVVLGAHNVRTQEPTQQHFSVAQVFLNNYDAENKLNDILLIQLSSPANLSASVTSVQLPQQDQPVPPHGTQCLAMGWGRVGAHDPPAQVLQELNVTVVTFFCRPHNICTFVPRRKAGICCFGDSGGPLICDGIIQGIDSFVIWGCATRLFPDFFTRVAYDWIRSTLR
# notes: In the ELISAs the PR-3 was bought (Sigma); also called active PR-3; endogenous PR-3
# What was measured:
# PR-3 = target: T1, PR-3; assay: Phage binding competition assay, targeted phage and cognate synthetic peptide; details: FIG. 4E
# Protocol: (§1) Phage Binding Assays. Binding of targeted phage to immobilized candidate receptors was evaluated as described (Kolonin et al., 2006b). Micro-wells of 96-well plates were blocked with phosphate-buffered saline (PBS) containing 3% BSA, washed, and incubated with 10^9 TU of targeted phage. Inhibition of phage binding was performed in the presence of increasing concentrations of synthetic peptides, as indicated. For phage display screening on immobilized prohibitin, 10^9 TU of phage clones recovered from the second round of in vivo selection were incubated ON with 1 μg of immobilized recombinant GST-prohibitin. Bound phage were recovered by infection of host bacteria (E. coli K91 Kan).
# ANXA2 = target: T5, ANXA2 (Homo sapiens, UniProt P07355); assay: Capture of GST-prohibitin with immobilized His6-ANXA2; type: binding; details: recombinant GST-conjugated protein (FIG. 3E)
# T5 construct: purchased AmProx
# Protocol: (§2) Protein Binding Assays. Titration of anti-peptide antibodies was performed on Maxisorb Immunoplates (Nunc) coated with 1 μg/mL of peptides or proteins. Incubation with primary antibodies was followed by signal detection with goat anti-rabbit HRP-conjugated IgG (Sigma-Aldrich; St. Louis, Mo.) and 3, 3′,5,5′-tetramethylbenzidine (TMB) (Calbiochem). To evaluate protein-protein interactions, the inventors performed ELISA on 96-well plates coated with 1 μg/mL of recombinant candidate receptors, as indicated. Blocking of exposed non-specific binding sites was performed with PBS containing either 2% gelatin or 1% BSA, as indicated. Ligand candidates were added to the wells at different concentrations, as indicated. Specific binding was detected by incubation with appropriate primary and secondary antibodies. For capture experiments, immobilized His6-ANXA2 and ANXAS were incubated with recombinant GST-prohibitin. Protein interaction, assessed by immunoblotting with anti-GST antibody, was detected with anti-rabbit or anti-goat secondary alkaline phosphatase-conjugated polyclonal antibodies.
# ANXAS = target: T2, ANXAS; assay: Capture of GST-prohibitin with immobilized control His6-ANXAS; type: binding; details: recombinant GST-conjugated protein (FIG. 3E)
# Protocol: as §2
# [1] = system: cells of mouse WAT vasculature; details: previous research (Kolonin et al., 2004); cited from earlier work
# prohibitin = target: T3, prohibitin; assay: Phage binding assay on immobilized prohibitin; details: increasing concentrations of synthetic peptide (FIG. 3B)
# Protocol: as §1
# His6-ANXA5 = target: T4, His6-ANXA5; assay: capture of GST-prohibitin on immobilized His6-annexin, immunoblot with anti-GST antibody
# [2] = target: B1; assay: affinity capture on monoavidin beads loaded with biotinylated peptide, from a membrane extract of human bone marrow cells; SDS-PAGE
# Description: (B) Liquid chromatography-mass spectrometry (LC-MS/MS) of peptides matching the candidate receptor PR-3. Peptides identified are underlined. […] Arrow: ˜35 kDa band specific to the RAGE-like peptides.
# BSA = target: T6, BSA (bovine, UniProt P02769 25-607); assay: ELISA on immobilized PR-3
# T6 construct: Control protein added to immobilized PR-3; also called bovine serum albumin; control protein
# BMPRIA-Fc = target: T7, BMPRIA-Fc (UniProt P36894 24-152); assay: ELISA on immobilized PR-3
# T7 construct: Bought (R&D Systems); control protein; also called Fc-BMPRIA; not shown: Fc tag
# T7 sequence (P36894 24-152): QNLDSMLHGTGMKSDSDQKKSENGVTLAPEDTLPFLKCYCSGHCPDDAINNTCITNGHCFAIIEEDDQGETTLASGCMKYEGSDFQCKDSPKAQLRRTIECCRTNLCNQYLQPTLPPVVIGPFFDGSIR
# T6 sequence (P02769 25-607 limits assumed): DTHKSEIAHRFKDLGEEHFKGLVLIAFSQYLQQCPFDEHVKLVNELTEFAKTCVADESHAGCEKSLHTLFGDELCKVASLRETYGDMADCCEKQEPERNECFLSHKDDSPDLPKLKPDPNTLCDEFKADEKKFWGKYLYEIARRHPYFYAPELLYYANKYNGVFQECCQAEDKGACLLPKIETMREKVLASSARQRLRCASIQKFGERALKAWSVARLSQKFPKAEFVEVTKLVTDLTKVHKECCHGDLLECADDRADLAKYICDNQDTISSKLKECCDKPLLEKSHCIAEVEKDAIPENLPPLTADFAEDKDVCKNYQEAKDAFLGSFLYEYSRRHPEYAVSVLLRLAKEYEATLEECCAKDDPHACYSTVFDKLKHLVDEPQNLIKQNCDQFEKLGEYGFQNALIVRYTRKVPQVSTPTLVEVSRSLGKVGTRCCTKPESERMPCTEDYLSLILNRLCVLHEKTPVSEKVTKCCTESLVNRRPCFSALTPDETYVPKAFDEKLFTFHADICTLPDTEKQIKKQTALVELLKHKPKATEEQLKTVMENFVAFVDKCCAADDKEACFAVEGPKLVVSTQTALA
# T5 sequence (P07355 whole entry): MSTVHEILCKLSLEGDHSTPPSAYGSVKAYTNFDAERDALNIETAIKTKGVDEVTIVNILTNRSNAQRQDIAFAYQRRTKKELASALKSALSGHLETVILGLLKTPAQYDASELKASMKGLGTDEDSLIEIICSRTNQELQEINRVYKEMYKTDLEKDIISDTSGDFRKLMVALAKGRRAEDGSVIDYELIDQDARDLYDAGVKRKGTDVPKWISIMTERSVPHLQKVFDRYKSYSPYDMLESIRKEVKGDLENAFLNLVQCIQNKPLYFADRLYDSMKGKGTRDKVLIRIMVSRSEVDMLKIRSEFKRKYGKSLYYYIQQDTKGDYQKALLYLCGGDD
molecule,measurement,setting,value
CWELGGGPC,inhibition of CWELGGGPC-phage binding by synthetic peptide,PR-3,specifically inhibited
prohibitin: recombinant glutathione S-transferase (GST)-conjugated prohibitin,binding of prohibitin to ANXA2,ANXA2,binds to ANXA2
same,binding of prohibitin to control protein ANXAS,ANXAS,not to the control protein ANXAS
CKGGRAKDC,localization and internalization in WAT vasculature,[1],localized to and internalized by cells of mouse WAT vasculature
same,inhibition of CKGGRAKDC-displaying phage binding to prohibitin by synthetic peptide,prohibitin,specifically inhibited in a concentration-dependent manner
"GST-prohibitin (other, UniProt P35232 1-272, looked up, Gift from Dr. Srikumar Chellappan; also called recombinant GST-prohibitin; glutathione S-transferase (GST)-conjugated protein; not shown: glutathione S-transferase (GST) tag) MAAKVFESIGKFGLALAVAGGVVNSALYNVDAGHRAVIFDRFRGVQDIVVGEGTHFLIPWVQKPIIFDCRSRPRNVPVITGSKDLQNVNITLRILFRPVASQLPRIFTSIGEDYDERVLPSITTEILKSVVARFDAGELITQRELVSRQVSDDLTERAATFGLILDDVSLTHLTFGKEFTEAVEAKQVAQQEAERARFVVEKAEQQKKAAIISAEGDSKAAELIANSLATAGDGLIELRKLEAAEDIAYQLSRSRNITYLPAGQSVLLQLPQ",binding result,His6-ANXA5,no binding
"Biotin-CARAC (also: cyclized, type and places not given here, Negative control on monoavidin beads; also called control elution peptide) [negative control peptide CARAC]",binding result,[2],no binding
B1,binding result,BSA,no binding
same,binding result,BMPRIA-Fc,no binding
